Experimental data published in paper PMC6850040 (Iubmb Life, 2019).

Columns and labels:
OxDC [1] = target: T1, OxDC (Bacillus subtilis, UniProt O34714, S161D/E162S/N163S/S164N); test: turbidity at […] nm, protection from aggregation; format: binding; details: 50 mM sodium glyoxylate; 16 mM Tris-HCl pH 7.2, 140 mM NaCl, 25 C; substrate analogue, active site (indirect evidence)
T1 construct: synthetic cDNA (GeneScript) in pET24a(+), thrombin site and C-terminal 6xHis; expressed in E. coli; two-step purification, untagged enzyme used; homohexamer 264 kDa, Mn-dependent

OxDC [2] = target: OxDC (Bacillus subtilis, UniProt O34714); test: oxalate decarboxylase activity, Michaelis-Menten fit; format: biochemical; details: pH 4.2; 140 mM NaCl; no o-phenylenediamine; potassium oxalate 0.1-250 mM
purified protein = substrate: O=C(O)C(=O)O; test: purified protein; details: pH 4.2, 140 mM NaCl, potassium oxalate 10-200 mM
[3] = target: the molecule itself; test: dynamic light scattering; 0.5 mg/mL enzyme, 25°C, 52 mM sodium acetate pH 4.2, 140 mM NaCl; self-association (hexamer)

O=CC(=O)O [sodium glyoxylate]
turbidity at 600 nm, protection from aggregation (OxDC [1]): We found that NaGlyox prevents aggregation

O=C(O)C(=O)O [oxalate]
Km (OxDC [2]): 8 ± 0.8 mM

B1: OxDC‐DSSN (OxDC bearing the Ser161Asp, Glu162Ser, Asn163Ser, Ser164Asn mutations) (enzyme, Bacillus subtilis)
chain: MKKQNDIPQPIRGDKGATVKIPRNIERDRQNPDMLVPPETDHGTVSNMKFSFSDTHNRLEKGGYAREVTVRELPISENLASVNMRLKPGAIRELHWHKEAEWAYMIYGSARVTIVDEKGRSFIDDVGEGDLWYFPSGLPHSIQALEEGAEFLLVFDDGSFDSSNTFQLTDWLAHTPKEVIAANFGVTKEEISNLPGKEKYIFENQLPGSLKDDIVEGPNGEVPYPFTYRLLEQEPIESEGGKVYIADSTNFKVSKTIASALVTVEPGAMRELHWHPNTHEWQYYISGKARMTVFASDGHARTFNYQAGDVGYVPFAMGHYVENIGDEPLVFLEIFKDDHYADVSLNQWLAMLPETFVQAHLDLGKDFTDVLSKEKHPVVKKKCSK
notes: Oxalate decarboxylase (OxDC) of Bacillus subtilis with four substitutions in the lid; made by site-directed mutagenesis of pET24a-OxDC (thrombin cleavage site and 6xHis tag at the C-terminus); The PDB entries are of the wild-type parent; source: two-step purification giving untagged protein; not shown: His6, C-terminal, cleaved
Km (purified protein): 0.30 ± 0.07 mM | Vmax (purified protein): 2 µmol/min/mg | kcat (purified protein): 1.4 s⁻¹ | stoichiometry N [3]: 6

B2: Oxalate decarboxylase (OxDC) from Bacillus subtilis, wild type (enzyme)
chain: MKKQNDIPQPIRGDKGATVKIPRNIERDRQNPDMLVPPETDHGTVSNMKFSFSDTHNRLEKGGYAREVTVRELPISENLASVNMRLKPGAIRELHWHKEAEWAYMIYGSARVTIVDEKGRSFIDDVGEGDLWYFPSGLPHSIQALEEGAEFLLVFDDGSFSENSTFQLTDWLAHTPKEVIAANFGVTKEEISNLPGKEKYIFENQLPGSLKDDIVEGPNGEVPYPFTYRLLEQEPIESEGGKVYIADSTNFKVSKTIASALVTVEPGAMRELHWHPNTHEWQYYISGKARMTVFASDGHARTFNYQAGDVGYVPFAMGHYVENIGDEPLVFLEIFKDDHYADVSLNQWLAMLPETFVQAHLDLGKDFTDVLSKEKHPVVKKKCSK
notes: Oxalate decarboxylase (OxDC) of Bacillus subtilis; cDNA with a thrombin cleavage site and a 6xHis tag at the C-terminus in pET24a(+); homohexamer of 264 kDa; Residues of the thrombin site may remain at the C-terminus after cleavage; Purification details are in the Supporting Information; also called wild‐type OxDC; source: two-step purification giving untagged protein; not shown: His6, …
stoichiometry N [3]: 6
